Assay results reported in the RNAGym collection of RNA variant scans (doi:10.7554/elife.80360).

B1: HDV Ribozyme (parent)
chain: GGCCGGCAUGGUCCCAGCCUCCUCGCUGGCGCCGGCUGGGCAACAUUCCGAGGGGACCGUCCCCUCGGUAAUGGCGAAUGGGACCCA

Variants of: B1
Experiment: self-cleavage, relative activity (ratio to wild type); higher = more cleavage; co-transcriptional

Variant	self-cleavage
G53U G82U	0.427
G54A A87G	0.877
G53U C86U	1.14
G54U G80C	0.159
G53A C86G	1.1
G53A C86A	1.16
G55A C85G	0.962
G54A G76U	0.799
G54A G76A	0.923
G53U A70G	1.08
G53U A70U	0.739
G54U C63G	0.749
G54U C63A	0.901
G53A U79C	0.376
G53U A78G	0.739
G53U A78C	0.229
G53C G74C	0.19
G53C G74U	0.379
G54C C86U	0.923
G54U C57G	1.1
G54A G81A	0.511
G54A G81C	0.26
G54A C64A	0.453
G54A C64U	0.696

Variant	self-cleavage
G53C U72G	0.697
G53C U72A	0.601
G53C U72C	1.02
G54U G81A	0.306
G54U G81U	0.349
G54U G81C	0.299
G55A C57G	1.07
G55A C57A	0.927
G54A C63U	1.04
G54A C63G	0.816
G53U C63U	0.895
G53U C63G	1.02
G53A G55U	1.17
G53A C84G	0.85
G53U C64G	0.62
G53U C62U	1.06
G53U C62G	0.793
G54C C61A	0.926
G54C C61U	1.01
G55A G80C	0.138
G55A G80A	0.369
G53A G80U	0.234
G53C C61U	1.2
G53C C61G	0.955

Variant	self-cleavage
G54A A78U	0.245
G53C C63A	1.06
G53C C63G	0.973
G54C G81A	0.393
G54C G81C	0.196
G54C G81U	0.19
G54U C85G	0.888
G54C C57A	0.937
G54C C57G	1.05
G53A G59C	0.872
G53A G59U	0.862
G55A A87G	0.966
G55A A87C	1.1
G55A A87U	1
G54C U69C	0.99
G54C U69A	0.945
G53C G73U	0.369
G53C G73A	0.782
G53C G73C	0.36
G54A C62G	1.06
G54A C62U	1.05
G54A C62A	0.917
G55A C84G	0.635
G55A C84A	0.992

Variant	self-cleavage
G54A A71U	0.912
G53U C58G	0.939
G53U C58A	1.02
G53U C58U	1.03
G54C G82C	0.397
G53C A87U	0.903
G53U G76C	1.11
G53U G67A	0.855
G55A A56U	0.926
G55A G68U	0.965
G53C A70C	0.653
G53C A70U	0.988
G53C A70G	0.962
G53A U65C	0.815
G53U A71G	0.843
G53U	1.01
G53C	0.97
G54C A71U	0.731
G53C G55U	0.987
G53C G55A	0.898
G53C U65G	0.688
G54A G67C	0.591
G54A C57U	1.02
G54A C57A	0.818

Variant	self-cleavage
G54C C62U	0.746
G54C C84G	0.917
G54C C84A	0.598
G54U G76A	0.981
G54U G76C	0.73
G54U G76U	1.09
G54C C63G	0.831
G54C C63U	0.774
G54U A87C	1.06
G54U A87G	0.933
G54U A87U	0.973
G54C U65C	0.92
G54C U65G	0.8
G54C U65A	0.721
G53U G73A	0.831
G53U G73U	0.472
G53U G73C	0.428
G54U A78U	0.302
G54U A78G	0.534
G54C C58G	1.04
G55A C75A	0.254
G54A G55U	0.993
G54A G55A	1.29
G54C C64U	0.82

Variant	self-cleavage
G54A U79A	0.465
G53U U60C	0.923
G55A A70G	0.89
G54C C85G	0.724
G54C C85A	0.831
G54C C85U	0.892
G53C U69A	0.77
G53U G68C	0.277
G54C C66G	0.591
G54C C66A	0.814
G54C C66U	0.917
G54A C85G	0.892
G55A A83U	0.415
G54C A56C	0.864
G54C A56U	1.06
G53C C75U	0.131
G53U U79A	0.509
G53U U79C	0.535
G53U U79G	0.405
G53A U69C	1.11
G53A U69G	1.04
G53A U69A	1.03
G55A G74C	0.208
G53C C84U	0.712

Variant	self-cleavage
G55A G67C	0.942
G55A G67U	1.12
G54U G59C	1.03
G53U C61A	1.02
G53U A77U	0.623
G53U A77C	0.453
G54A C86U	0.992
G54A C86G	1.07
G54A C86A	0.988
G54U A56C	0.861
G54U A56G	1.15
G54C A70G	1.07
G54C A70C	0.755
G54C A70U	0.81
G54C A87U	0.901
G53U U65G	0.831
G54A G74A	0.445
G54A G74U	0.562
G54A G74C	0.194
G53C G67U	0.631
G53C G67C	0.427
G53C G67A	0.723
G53C A83C	0.525
